Results from the Human Domainome abundance scans (Beltran et al. 2025).

B1: E3 ubiquitin-protein ligase NEDD4-like, residues 539 to 589; numbered along this chain, Q96PU5 (parent)
chain: KTSLNPNDLGPLPPGWEERIHLDGRTFYIDHNSKITQWEDPRLQNPAITGP

Variants of: B1
Experiment: abundance fitness (aPCA) (normalised: wild type 0, dead -1); higher = more abundant; growth selection in yeast, the domain comes from the species named
Details: Homo sapiens

Abundance fitness: each site, then its substitutions
H21: P -0.693, F -0.439, G 0.166, E -0.052, W -0.051, R -0.149, K -0.178, V -0.296, D 0.101, N -0.244, T 0.087, Y -0.151, S 0.221, C 0.057, I -0.478, M -0.124, L -0.289
Y28: M -0.991, G -0.451, P -0.242, K -0.332, N -0.851, W -0.008, L -0.703, H -0.636, D -0.399, F -0.347, C -0.902, T -0.626, Q -0.424, R -0.536, V -0.696, I -0.273, S -0.399
G24: W -1.07, C -0.917, R -0.56, Y -0.76, N -0.639, E -0.719, V -1.03, M -1.08, A -0.608, S -0.531, L -0.938, K -0.53, P -1.14, I -1.12, F -1.35, Q -0.705
D23: G -0.388, Y -0.715, P -0.445, H -0.593, I -0.725, Q -0.252, V -0.876, L -0.548, C -0.135, T -0.031, F -1.12, N -0.064, K -0.333, A -0.779, R -0.645, S -0.036, M -0.5, E -0.584
D30: N 0.166, C -0.166, F -0.546, P -0.953, H 0.125, Q -0.424, A -0.539, E -0.24, K -0.369, M -0.753, I -0.87, L -0.591, G -0.617
T26: H 0.084, A -0.065, S -0.113, Y -0.105, R -0.011, K 0.056, I -0.131, E -0.403, P -0.051, F -0.287, D -0.635, L -0.136, Q -0.284, C -0.065, N -0.187, W -0.645, M -0.125, V -0.077
I29: D -0.422, T -0.166, M -0.141, Y -0.017, A -0.299, K -0.027, C -0.124, G -0.482, Q -0.176, V 0.013, S -0.318, W -0.332, H -0.782, N -0.378, R -0.271, E -0.105, L -0.175
L22: N -0.247, Y 0.07, A 0.156, C -0.219, T 0.141, W -0.167, K 0.206, S 0.154, P 0.246, R 0.052, I -0.107, D 0.048, F -0.23, Q 0.152, V 0.089, M 0.013, G 0.085
R25: I -0.757, W -0.72, H -0.382, E -0.198, P -0.558, Q -0.187, D -0.287, A -0.301, L -0.598, F -0.568, T -0.068, Y -0.569, S -0.063, G -0.265, C -0.393, M -0.48, N -0.164, V -0.54
F27: C -0.056, L -0.039, G -0.197, T -0.089, E 0.175, P -0.357, R -0.163, N -0.201, S -0.092, D -0.27, Q 0.042, K -0.002, W -0.346, A -0.112, I -0.163, V -0.188
